{"source": "paper PMC8457657", "target": "pseudotyped SARS-CoV-2 (spike on lentivirus), active (SARS-CoV-2) (UniProt P0DTC2)", "test": "ELONA", "conditions": "pH 7.2, pH 7.4, room temperature ([…], MST 10 min)"}
{"sequence": "CCCGACCAGCCACCATCAGCAACTCTTCCGCGTCCATCCCTGCTG [SARS2-AR10]", "values": [{"measurement": "Kd", "result": 79, "unit": "nM"}]}
